{"source": "patent US20240101688A1", "about": "(MYTHIC THERAPEUTICS, published 2024)", "key": {"[1]": {"biological_target": "T1, MET (cMET, Sino Biological Cat. No. 10692-H08H) (UniProt P08581 25-932)", "T1 construct": "Soluble analyte of the BLI assays", "T1 sequence (P08581 25-932 limits assumed)": "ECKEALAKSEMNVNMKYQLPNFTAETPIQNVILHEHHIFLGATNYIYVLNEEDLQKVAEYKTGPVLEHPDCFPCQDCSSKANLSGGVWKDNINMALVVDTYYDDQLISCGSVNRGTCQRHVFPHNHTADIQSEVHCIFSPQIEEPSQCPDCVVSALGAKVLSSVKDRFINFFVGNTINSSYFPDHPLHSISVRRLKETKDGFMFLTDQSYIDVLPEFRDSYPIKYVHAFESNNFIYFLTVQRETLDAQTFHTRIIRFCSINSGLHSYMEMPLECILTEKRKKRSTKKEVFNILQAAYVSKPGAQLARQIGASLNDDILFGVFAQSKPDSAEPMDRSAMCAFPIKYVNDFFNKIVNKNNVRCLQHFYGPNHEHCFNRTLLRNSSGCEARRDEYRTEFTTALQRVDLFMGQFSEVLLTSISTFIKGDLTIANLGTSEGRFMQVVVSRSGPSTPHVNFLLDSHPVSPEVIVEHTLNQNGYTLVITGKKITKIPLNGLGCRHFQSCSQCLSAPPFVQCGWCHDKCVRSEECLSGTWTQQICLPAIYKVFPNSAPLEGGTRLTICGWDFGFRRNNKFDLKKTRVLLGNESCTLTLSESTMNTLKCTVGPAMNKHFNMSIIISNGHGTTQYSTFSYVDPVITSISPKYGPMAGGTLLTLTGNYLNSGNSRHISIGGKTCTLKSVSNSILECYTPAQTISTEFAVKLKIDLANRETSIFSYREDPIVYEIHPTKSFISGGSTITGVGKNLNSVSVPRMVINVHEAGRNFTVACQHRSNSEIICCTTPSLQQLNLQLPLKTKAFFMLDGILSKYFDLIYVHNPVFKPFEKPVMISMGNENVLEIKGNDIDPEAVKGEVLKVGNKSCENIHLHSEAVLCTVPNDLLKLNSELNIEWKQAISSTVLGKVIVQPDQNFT", "experiment": "BLI: antibody captured on anti-human Fc biosensor, MET in solution; three runs: pH 7.4 throughout, pH 6.4 throughout, association at pH 7.4 then release at lower pH (key on the sheet: pH 5.4; legend paragraph 84: pH 6.4); association 0-120 s"}, "[2]": {"biological_target": "T2, MET Proto-Oncogene, Receptor Tyrosine Kinase (MET), on cells (human, UniProt P08581 25-1390)", "T2 construct": "also called cMET; c-Met", "T2 sequence (P08581 25-1390)": "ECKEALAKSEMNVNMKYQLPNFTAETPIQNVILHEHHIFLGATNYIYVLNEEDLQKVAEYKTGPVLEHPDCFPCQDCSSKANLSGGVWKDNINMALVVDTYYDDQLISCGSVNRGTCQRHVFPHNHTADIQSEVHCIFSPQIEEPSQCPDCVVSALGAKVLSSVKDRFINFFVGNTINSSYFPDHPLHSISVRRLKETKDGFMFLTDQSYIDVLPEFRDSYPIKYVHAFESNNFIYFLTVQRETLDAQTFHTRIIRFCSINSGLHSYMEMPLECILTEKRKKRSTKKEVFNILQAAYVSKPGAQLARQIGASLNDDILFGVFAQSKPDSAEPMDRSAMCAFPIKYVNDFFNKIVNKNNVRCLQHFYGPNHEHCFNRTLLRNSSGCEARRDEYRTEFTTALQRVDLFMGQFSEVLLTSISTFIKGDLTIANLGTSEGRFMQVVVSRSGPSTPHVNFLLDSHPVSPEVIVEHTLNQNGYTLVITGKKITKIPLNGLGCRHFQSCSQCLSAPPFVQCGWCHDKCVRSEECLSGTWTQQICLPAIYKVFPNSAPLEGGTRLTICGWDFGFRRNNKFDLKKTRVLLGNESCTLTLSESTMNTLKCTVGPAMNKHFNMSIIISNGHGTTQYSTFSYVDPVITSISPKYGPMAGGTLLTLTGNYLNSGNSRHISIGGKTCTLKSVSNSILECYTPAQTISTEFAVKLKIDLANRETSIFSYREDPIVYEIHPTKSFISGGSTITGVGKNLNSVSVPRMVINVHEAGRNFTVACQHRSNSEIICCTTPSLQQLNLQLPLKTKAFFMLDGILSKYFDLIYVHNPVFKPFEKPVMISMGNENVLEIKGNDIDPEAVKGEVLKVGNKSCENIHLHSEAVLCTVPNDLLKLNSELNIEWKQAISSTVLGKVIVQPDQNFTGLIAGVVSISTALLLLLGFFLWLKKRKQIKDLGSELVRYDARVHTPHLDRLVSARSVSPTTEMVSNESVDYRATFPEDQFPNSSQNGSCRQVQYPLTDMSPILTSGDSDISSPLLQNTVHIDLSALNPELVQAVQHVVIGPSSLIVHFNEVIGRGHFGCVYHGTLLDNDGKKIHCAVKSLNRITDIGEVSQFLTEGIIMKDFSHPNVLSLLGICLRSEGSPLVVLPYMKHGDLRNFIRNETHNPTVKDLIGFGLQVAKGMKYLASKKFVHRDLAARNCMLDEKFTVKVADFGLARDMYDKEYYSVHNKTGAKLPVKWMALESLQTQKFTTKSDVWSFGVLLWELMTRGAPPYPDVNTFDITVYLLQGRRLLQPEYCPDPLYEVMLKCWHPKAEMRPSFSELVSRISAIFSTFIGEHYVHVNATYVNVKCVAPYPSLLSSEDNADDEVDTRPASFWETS", "experiment": "affinity on HUVEC against affinity on Detroit-562, flow cytometry, pH 7.4", "method": "(§1) Measurement of the affinity of pH-engineered antibodies specific for MET was performed by FACS analysis on cell lines with ranges of cMET expression; Detroit-562 cells (ATCC; CCL-138), NCI-H1975 (ATCC CRL-5908) and HUVEC (C2519A, Lonza). Cell lines selected for this study were obtained from commercial sources and cultured using manufacturer recommended conditions. All cell lines were cultured upon receipt, expanded and cryopreserved at a similar passage number for use in the affinity experiments. Briefly, 1.0×10\\hat{ }5 cells that express MET are plated per well in a 96-well plate in 100 μL media. The cells are washed two times with 200 μL of FACS buffer (1×PBS containing 3% Fetal Bovine Serum) at pH 7.4. The purified protein samples are diluted into FACS buffer at pH 7.4, for a titration from 100 nM to 1 pM, and added to the cells and allowed to bind for 2 hours on ice. After incubation with the primary antibodies, cells are washed twice as before, and then 100 μl of secondary goat anti-Human AF488 (IgG Cross-Adsorbed polyclonal secondary antibody), diluted 1:200, is added in FACS buffer pH 7.4, and incubated for 1 hour on ice. The plates are washed twice Binding is read on a flow cytometer (Accuri C6, BD Biosciences). Binding is observed as a shift in the FL1 signal (as a mean fluorescence intensity) versus secondary alone."}, "[3]": {"biological_target": "T2, MET Proto-Oncogene, Receptor Tyrosine …", "experiment": "flow cytometry titration on Detroit-562 cells (125K/cell), pH 7.4; printed as Affinity at pH 7.4", "method": "as §1"}, "[4]": {"biological_target": "T2, MET Proto-Oncogene, Receptor Tyrosine …", "experiment": "flow cytometry titration on HUVEC cells (8k/cell), pH 7.4; printed as Affinity at pH 7.4; HUVEC cells (8k/cell), pH 7.4", "method": "as §1"}}, "data": [{"binder": "MYT4940 (antibody, V domains shown, Telisotuzumab variant) VH: QVQLVQSGAEVKKPGASVKVSCKASGYIFTAYTMHWVRQAPGQGLEWMGWIKPNNGLANYAQKFQGRVTMTRDTSISTAYMELSRLRSDDTAVYYCARHEITTEFDHWGQGTLVTVSS VL: DIVMTQSPDSLAVSLGERATINCKSSESVDSYANSHLHWYQQKPGQPPKLLIYRASTRESGVPDRFSGSGSGTDFTLTISSLQAEDVAVYYCQQSKEDPLTFGGGTKVEIKR", "values": [{"measurement": "binding result", "setting": "[1]", "result": "binds"}]}, {"binder": "MYT4325 (antibody, V domains shown, P3D12 variant) VH: QVQLVQSGAEVKKPGASVKVSCKASGYTFTSYWMHWVKQAPGQGLDWIGYIKPSTDNTHYNQKFKDKATLTADKSTSTAYMELSSLRSEDTAVYYCARSYGHYPLMHYWGQGTTVTVSS VL: QIVLTQSPAILSLSPGERATLSCSASSSVTSNYLYWYQQKPGSSPKLLIYSTSNLASGVPARFSGSGSGTSYTLTISSLEAEDAASYFCHQWSSYPPTFGSGTKLEIKR", "values": [{"measurement": "Fold Avidity", "setting": "[2]", "result": "> 220", "unit": "fold"}, {"measurement": "Kd", "setting": "[3]", "result": 0.903, "unit": "nM"}, {"measurement": "Kd", "setting": "[4]", "result": "> 200", "unit": "nM"}]}]}
